The values below are quoted from earlier work in patent publication US10669306B2, “Solid supports for use in solid-phase peptide synthesis, kits, and related methods” (UNIVERSITY OF WASHINGTON, priority 2016, dated 2020).

For this series, the target named is integrin αvβ3 receptor (Homo sapiens, UniProt P05106+P06756). Particulars: cyclic form; Prante, O., et al. Bioconjug. Chem. 2007, 18, 254.
integrin αvβ3 receptor, sequence (P06756 31-889 limits assumed): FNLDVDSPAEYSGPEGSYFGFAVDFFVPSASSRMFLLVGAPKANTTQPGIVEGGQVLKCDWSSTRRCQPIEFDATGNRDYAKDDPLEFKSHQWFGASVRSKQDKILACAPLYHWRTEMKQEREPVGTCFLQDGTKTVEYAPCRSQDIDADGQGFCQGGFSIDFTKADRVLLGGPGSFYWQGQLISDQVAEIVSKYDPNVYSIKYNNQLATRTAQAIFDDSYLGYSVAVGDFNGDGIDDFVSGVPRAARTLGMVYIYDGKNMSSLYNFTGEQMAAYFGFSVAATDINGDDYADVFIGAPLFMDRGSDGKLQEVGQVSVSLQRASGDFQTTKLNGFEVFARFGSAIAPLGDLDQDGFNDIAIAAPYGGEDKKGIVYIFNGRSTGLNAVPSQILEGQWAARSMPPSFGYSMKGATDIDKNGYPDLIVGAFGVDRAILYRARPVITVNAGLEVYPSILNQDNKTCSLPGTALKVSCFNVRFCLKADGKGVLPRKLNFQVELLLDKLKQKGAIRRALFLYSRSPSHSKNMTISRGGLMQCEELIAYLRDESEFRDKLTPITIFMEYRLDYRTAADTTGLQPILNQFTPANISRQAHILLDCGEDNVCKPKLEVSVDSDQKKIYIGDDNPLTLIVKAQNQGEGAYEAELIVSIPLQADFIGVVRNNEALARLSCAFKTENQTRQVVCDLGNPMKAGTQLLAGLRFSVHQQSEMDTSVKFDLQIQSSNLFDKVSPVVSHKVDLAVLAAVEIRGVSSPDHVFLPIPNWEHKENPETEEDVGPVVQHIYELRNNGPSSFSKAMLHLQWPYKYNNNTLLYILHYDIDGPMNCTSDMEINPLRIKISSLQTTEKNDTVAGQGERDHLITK
integrin αvβ3 receptor, sequence (P06756 891-1048 partner limits assumed): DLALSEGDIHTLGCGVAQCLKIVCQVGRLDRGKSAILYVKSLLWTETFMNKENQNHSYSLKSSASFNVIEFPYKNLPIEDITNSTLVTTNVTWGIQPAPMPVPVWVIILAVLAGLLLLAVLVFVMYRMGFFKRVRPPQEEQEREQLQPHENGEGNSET
integrin αvβ3 receptor, sequence (P05106 27-788): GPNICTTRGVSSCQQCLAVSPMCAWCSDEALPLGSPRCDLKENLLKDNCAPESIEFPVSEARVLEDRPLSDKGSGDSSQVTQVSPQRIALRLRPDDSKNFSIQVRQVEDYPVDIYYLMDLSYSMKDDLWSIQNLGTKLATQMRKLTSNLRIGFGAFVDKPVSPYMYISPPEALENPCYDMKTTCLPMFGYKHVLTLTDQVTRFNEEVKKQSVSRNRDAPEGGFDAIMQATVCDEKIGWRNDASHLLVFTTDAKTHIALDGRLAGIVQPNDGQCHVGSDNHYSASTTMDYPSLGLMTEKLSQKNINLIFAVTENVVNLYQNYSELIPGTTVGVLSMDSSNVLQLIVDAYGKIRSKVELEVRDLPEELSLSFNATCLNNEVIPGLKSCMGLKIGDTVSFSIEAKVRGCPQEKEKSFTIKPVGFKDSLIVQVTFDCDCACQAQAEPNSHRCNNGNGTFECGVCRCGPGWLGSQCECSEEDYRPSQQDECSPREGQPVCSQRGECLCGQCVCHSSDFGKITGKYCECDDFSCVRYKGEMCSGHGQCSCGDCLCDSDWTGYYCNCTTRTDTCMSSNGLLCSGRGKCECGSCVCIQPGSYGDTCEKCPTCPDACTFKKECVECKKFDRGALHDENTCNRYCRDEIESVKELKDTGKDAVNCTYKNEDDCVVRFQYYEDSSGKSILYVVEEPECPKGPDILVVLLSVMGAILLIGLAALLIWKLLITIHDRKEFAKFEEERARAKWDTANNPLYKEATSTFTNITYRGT

As for “CRGD(D-F): Cyclic CRGD(D)-F, a commercially available integrin binding peptide (ANASPEC)”, the “binding affinity for integrin αvβ3 receptor” value was “nanomolar affinity”.
